Assay results: PMC4353692

Target: Manduca sexta V-ATPase subunit c (c ring) (Manduca sexta (endogenous in midgut))
Test: cryo-EM structure; M. sexta V-ATPase holoenzyme purified from tissue, in C12E10; 9.4 Å reconstruction (gold standard FSC 0.143); homology models of the subunits flexibly fitted by MDFF; side chains not resolved

Substance: Manduca sexta V-ATPase subunit c (c ring) (natural protein)
- stoichiometry N: 8
